Measurements as given in patent publication US20250136699A1 (JIANGSU BIOJETAY BIOTECHNOLOGY, published 2025).
Where two headings read alike, the source gives them in different places.

T1: musculus FcRn-alpha (mouse, UniProt Q61559 22-297, limits assumed)
T1 construct: Alpha chain alone; also called mFcRn; mouse FcRn; not shown: His tag and Avi tag
T1 sequence: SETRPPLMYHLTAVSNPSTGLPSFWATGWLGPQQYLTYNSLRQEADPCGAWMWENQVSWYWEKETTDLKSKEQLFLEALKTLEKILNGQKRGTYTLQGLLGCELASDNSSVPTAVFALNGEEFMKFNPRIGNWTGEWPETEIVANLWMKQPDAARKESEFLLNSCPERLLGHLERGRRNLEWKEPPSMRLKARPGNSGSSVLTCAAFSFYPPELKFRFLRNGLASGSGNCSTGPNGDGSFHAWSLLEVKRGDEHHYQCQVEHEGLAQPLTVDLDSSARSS

T2: Rattus norvegicus FcRn-alpha (rat, UniProt P13599 23-298)
T2 construct: Alpha chain alone; also called rFcRn; rat FcRn; not shown: His tag and Avi tag
T2 sequence: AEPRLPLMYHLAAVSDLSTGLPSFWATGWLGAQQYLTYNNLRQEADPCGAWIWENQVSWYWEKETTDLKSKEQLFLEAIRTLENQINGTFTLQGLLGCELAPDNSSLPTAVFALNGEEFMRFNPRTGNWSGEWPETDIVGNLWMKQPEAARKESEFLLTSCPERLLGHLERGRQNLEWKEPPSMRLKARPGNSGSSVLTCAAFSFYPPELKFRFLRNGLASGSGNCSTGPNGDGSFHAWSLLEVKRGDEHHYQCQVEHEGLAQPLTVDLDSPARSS


Columns and labels:
musculus FcRn-alpha = molecular target: T1, musculus FcRn-alpha; test: ELISA: mFcRn coated, antibody titrated, goat anti-human IgG Fab-HRP, OD450
[1] = molecular target: T3, human FcRn (human FCGRT and B2M) on stably transfected MDCK cells (human, UniProt P55899 24-365; P61769 21-119); test: cell-based or functional assay
T3 sequence (P55899 24-365, chain 1 of 2): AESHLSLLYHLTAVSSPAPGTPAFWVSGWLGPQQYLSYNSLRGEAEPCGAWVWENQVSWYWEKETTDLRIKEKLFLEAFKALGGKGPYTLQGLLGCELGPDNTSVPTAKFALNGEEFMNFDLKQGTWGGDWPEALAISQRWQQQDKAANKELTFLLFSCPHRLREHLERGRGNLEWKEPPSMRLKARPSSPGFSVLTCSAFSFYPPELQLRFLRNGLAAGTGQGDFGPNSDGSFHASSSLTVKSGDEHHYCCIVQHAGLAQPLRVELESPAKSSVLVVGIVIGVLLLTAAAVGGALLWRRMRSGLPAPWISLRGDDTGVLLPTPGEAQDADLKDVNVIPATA
T3 sequence (P61769 21-119, chain 2 of 2): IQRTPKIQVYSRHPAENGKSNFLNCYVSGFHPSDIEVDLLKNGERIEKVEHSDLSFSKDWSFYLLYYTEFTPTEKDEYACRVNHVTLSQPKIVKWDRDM

[2] = molecular target: T4, Human recombinant FCGRT & B2M Heterodimer Protein (hFcRn) (human, UniProt P55899 24-297; P61769 21-119); test: ELISA on coated hFcRn, IgG4 antibody titrated
T4 construct: Bought protein; also called human FcRn
T4 sequence (P55899 24-297 limits assumed, chain 1 of 2): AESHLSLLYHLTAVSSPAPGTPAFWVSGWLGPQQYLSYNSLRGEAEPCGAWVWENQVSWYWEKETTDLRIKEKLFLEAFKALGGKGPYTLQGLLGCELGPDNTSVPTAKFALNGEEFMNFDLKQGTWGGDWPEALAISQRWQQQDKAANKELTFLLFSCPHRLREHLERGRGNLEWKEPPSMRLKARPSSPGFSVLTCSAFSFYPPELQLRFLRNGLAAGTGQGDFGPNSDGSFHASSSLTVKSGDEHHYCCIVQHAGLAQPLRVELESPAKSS
T4 sequence (P61769 21-119 limits assumed, chain 2 of 2): as the sequence (P61769 21-119, chain 2 of 2) above
Method: (§1) hFcRn binding of purified full-length chimeric antibodies: The hFcRn antigen binding ELISA was performed on the purified full-length chimeric antibodies (reformatted as IgG4). Briefly, plates were coated overnight at 4° C. with 1 μg/mL of hFcRn (cat #CT009-H08H) in PBS. After removing the coating solution, the wells were blocked by adding blocking buffer and incubated at room temperature for 1 hour. Plates were then washed 6 times with wash buffer. Serial dilutions of purified antibodies in PBS were added to individual wells followed by incubation at room temperature for 1 hour. Plates were washed 6 times with wash buffer. […] Plates were incubated at 37° C. for 1 hour, washed 6 times with wash buffer, and developed for 5-10 minutes with 50 L/well of TMB substrate, then quenched with 2M H₂SO₄. […] The ELISA results (OD450) were analyzed, and the binding curves were generated by Graphpad PRISM.

[3] = molecular target: T5, Cynomolgus monkey FcRn-alpha (cynomolgus monkey, UniProt Q8SPV9 24-297, limits assumed); test: ELISA on coated cynoFcRn, IgG4 antibody titrated
T5 construct: The printed entry looks like the full-length precursor (signal peptide, transmembrane and cytoplasmic parts); also called cynoFcRn; not shown: His tag and Avi tag
T5 sequence (Q8SPV9 24-297 limits assumed): as the sequence (P55899 24-297 limits assumed, chain 1 of 2) above, with N39D, E44Q, G99S, S189G, S190N, L217M, S269T counted along it

human FCGRT [4] = molecular target: T6, human FCGRT (human, UniProt P55899 24-297, biotinylated (Avi tag) in the blocking assays); test: ELISA on coated human FCGRT, IgG4 antibody titrated
T6 construct: Alpha chain alone, expressed in Expi293 cells with His and Avi tags; also called FCGRT of human FcRn protein; biotinylated human FCGRT; not shown: His tag and Avi tag
T6 sequence (P55899 24-297 limits assumed): as the sequence (P55899 24-297 limits assumed, chain 1 of 2) above

human B2M [5] = molecular target: T7, human B2M (human, UniProt P61769 21-119, limits assumed); test: ELISA: human B2M coated, antibody titrated, OD450
T7 construct: also called beta-2-microglobulin; not shown: His tag and Avi tag
T7 sequence (P61769 21-119 limits assumed): as the sequence (P61769 21-119, chain 2 of 2) above

human FCGRT [6] = molecular target: T6, human FCGRT; test: competition ELISA: human IgG coated, biotinylated human FCGRT plus antibody, SA-HRP
Method: (§2) After removing the coating solution, the wells were blocked with a blocking buffer containing 1% BSA at room temperature for 1 hour. Plates were then washed with wash buffer. […] After incubation, 100 μL of SA-HRP (1:20,000) was added to each well and incubated for 1 hour at 37° C. The wells were washed before adding 100 μL/well of TMB and incubated for 5-10 minutes at 37° C. 2M H₂SO₄ was used to stop the reaction. […] The ELISA results (OD450) were analyzed, and the binding curves were generated by PRISM.

[7] = molecular target: T3, human FcRn (human FCGRT and B2M) on …; test: cell-based or functional assay; remark: listed apart in the source
human B2M [8] = molecular target: T7, human B2M; test: ELISA: human B2M coated, antibody titrated, OD450; remark: listed apart in the source
Method: (§3) Measurement of the binding specificity of anti-FcRn antibodies to FCGRT and B2M by EILSA: Briefly, human FCGRT or B2M was coated on a 96-well plate at 4° C. overnight, after removing the coating solution, a blocking buffer containing 1% BSA was added into the plates followed by incubation at room temperature for 1 hour to block unspecific binding. Plates were then washed with wash buffer, and serial dilutions of anti-FcRn antibodies were added to the wells and incubated at room temperature for 1 hour. […] The wells were washed before adding 100 μL/well of TMB and incubated for 5-10 minutes at 37° C. 2M H₂SO₄ was used to stop the reaction. […] The ELISA results (OD450) were analyzed, and the binding curves were generated by Graphpad PRISM.

[9] = molecular target: T4, Human recombinant FCGRT & B2M …; test: ELISA, hFcRn coated at 1 ug/mL, IgG4 antibody titrated, anti-human IgG Fab-HRP
Method: as §1

[10] = molecular target: T2, Rattus norvegicus FcRn-alpha; test: ELISA: rFcRn coated, antibody titrated, goat anti-human IgG Fab-HRP, OD450
Method: as §1
(§4) Analysis of cross-reactivity to FcRn from different species: To examine whether the anti-FcRn antibodies bind to FcRn from different species, antigen binding ELISA assays were performed as described above except that cynoFcRn, mFcRn, or rFcRn was used in the assay instead of hFcRn.

human FCGRT [11] = molecular target: T6, human FCGRT; test: competition ELISA: human IgG coated, biotinylated human FCGRT plus antibody, SA-HRP; remark: listed apart in the source
Method: as §2

[12] = molecular target: T5, Cynomolgus monkey FcRn-alpha; test: ELISA: cynoFcRn coated, antibody titrated, goat anti-human IgG Fab-HRP, OD450
Method: as §1, §4

human FCGRT [13] = molecular target: T6, human FCGRT; test: ELISA: human FCGRT coated, antibody titrated, goat anti-human IgG Fab-HRP, OD450
Method: as §3

human FCGRT [14] = molecular target: T6, human FCGRT; test: as above; remark: listed apart in the source
Method: as §3

human FCGRT [15] = molecular target: T6, human FCGRT; test: blocking ELISA: human IgG coated, biotinylated human FCGRT plus titrated antibody, SA-HRP, OD450; blocked ligand: human IgG
Method: as §2

Molecule	EC50 (read off the curve) (musculus FcRn-alpha) [nM]	IgG Recycle IC50 [7] [nM]	binding result (human B2M [8])	EC50 [9] [nM]	binding result [10]	IC50 (human FCGRT [11]) [nM]	EC50 (read off the curve) [12] [nM]	EC50 (read off the curve) (human FCGRT [13]) [nM]	EC50 (read off the curve) (human FCGRT [14]) [nM]	also measured
Human IgG (Jackson ImmunoResearch, cat #009-000-003) (antibody)	30									
ZLP1-3-2 (antibody, V domains shown, also called humanized version of ZLP193) VH: QVQLQESGPGLVKPSETLSLTCAVSGYSFTSGYSWHWIRQPPGKGLEWIGYIHDSGGTNYNPSLKSRVTISRDTSKNQFSLKLSSVTAADTAVYYCAREENYRYFDVWGQGTLVTVSS VL: EIVLTQSPATLSLSPGERATLSCSASSSVSYMHWFQQKPGQSPRLWIYSTSNLASGIPARFSGSGSGTDYTLTISSLEPEDFAVYYCQQRSSYPPTFGQGTKVEIK										IgG Recycle IC50 [1]: 4.04 nM; EC50 [2]: 2.95 nM; EC50 [3]: 3.12 nM; EC50 (human FCGRT [4]): 1.5 nM; binding result (human B2M [5]): no binding (tested: about 700 nM (Log[Ab] about 2.8)); IC50 (human FCGRT [6]): 6.16 nM
ZLP44 (antibody, V domains shown, Full-length chimeric antibody; human kappa or lambda light constant domain) VH: EVQLQQSGPELVKPGASVKVSCKASGYIFTSYNMYWMKQSHGKSLEWIGYIDPYNGGTRYNQKFKGKATLTVDKSSSTAYMHLNSLTSEDSAVYYCAVDGYNGAMDYWGQGTSVTVSS VL: QIVLTQSPASLAVSLGQRATISCRASESVDSYGNSFMHWYQQKPGQPPKLLIYRASNLESGIPARFSGSGSRTDFTLTINPVEADDVATYYCQQSNEDPYTFGGGTKLEIK		2.5	no binding (tested: about 700 nM (Log[Ab] about 2.8))	0.673	no binding (tested: about 700 nM (Log[Ab] about 2.8))	12.3	~0.1	~0.1		
ZLP42 (antibody, V domains shown, Full-length chimeric antibody) VH: QVQLQQPGAELVKPGASVKLSCTASGFNIKDTYMYWVKQRPEQGLEWIGRIDPANGITKFDPKFQDKATVTADTFSNIAYLHLSSLTSEDTAVYYCTTTAVMATEAMDRWGQGTSVTVSS VL: QIVLTQSPASLAVSLGQRATISCRASESVDSYGNSFMHWYQQKPGQPPKLLIYRASNLESGIPARFSGSGSRTDFTLTINPVEADDVATYYCQQSNEDPYTFGGGTKLEIK			no binding (tested: about 700 nM (Log[Ab] about 2.8))	0.981	no binding (tested: about 700 nM (Log[Ab] about 2.8))	10.9		~0.2		
ZLP64 (antibody, V domains shown, Full-length chimeric antibody; human kappa or lambda light constant domain) VH: QIQLLQSGPELVKPGASVKVSCKASGYIFTSYNMYWMKQSHGKSLEWIGYIDPYNGGTNYNQKFKGKATLTVDKSSSTAYMHLNSLTSEDSAVYYCAVDGYNGAMDYWGQGTSVTVSS VL: DIVLTQSPASLTVSLGQRATISCRASESVDRYGNSFMHWYQQKPGQPPKLLIYRASNLESGVPARFSGSGSRTDFTLTINPVEADDVASYYCQQSNEDPLTFGAGTKLELK		10.7	no binding (tested: about 700 nM (Log[Ab] about 2.8))	0.212	no binding (tested: about 700 nM (Log[Ab] about 2.8))	12.5	~0.08	~0.3		
ZLP17 (antibody, V domains shown, Full-length chimeric antibody with human IgG1 or IgG4 heavy constant and human kappa or lambda light constant domain) VH: QIQLLQSGAELARPGASVKMSCKASGYTFTSYTMHWVKQRPGQGLEWIGYINPSSGYTNYNQKFKDKATLTADKSSSTAYMQLSSLTSEGSAVYYCARSGLRRVLDYWGQGTSVTVSS VL: ENVLTQSPAILSASPGEKVTMTCSASSSVSYMYWYQQKPGSSPRLLIYDTSNLASGVPVRFSGSGSGTSYSLTISRMEAEDAATYYCQQWSSYPRTFGGGTKLEIK	~30	3.24	no binding (tested: about 700 nM (Log[Ab] about 2.8))				~7		~20	IC50 (read off the curve) (human FCGRT [15]): ~20 nM
ZLP198 (antibody, V domains shown, Full-length chimeric antibody with human IgG1 or IgG4 heavy constant and human kappa or lambda light constant domain) VH: EVKLMESGPDLVKPSQSLSLTCTVTGYSITSGYSWHWIRHFPGKKLEWMGYIHNSGSTNYNPSLKSRISISRETSKNQFFLQLNSVTTEDTATYYCAREGYGGYWYFDVWGAGTSVTVSS VL: DIVLTQSPAIMSASPGEKVTMTCSASSSVSYMYWYQQKPGSSPKPWIYGTSNLASGVPVRFSGSGSGTSYSLTISRMEAEDAATYYCQQRSSYPYTFGGGTKLEIK	~10		no binding (tested: about 700 nM (Log[Ab] about 2.8))				~6		~20	
ZLP57 (antibody, V domains shown, Full-length chimeric antibody with human IgG1 or IgG4 heavy constant and human kappa or lambda light constant domain) VH: QVQLKESGPDLVKPSQSLSLTCTVTGYSITSGYSWHWIRQFPGNKLEWMTYIHSSGSTNYNPSLKSRISITRDTSKNQFFLQLKSVTTEDTATYYCAREVYGNYYWYFDVWGAGTTVTVSS VL: DIVMTQSPAIMSASLGEEITLTCSASSSVSYMHWYQQKSGTSPKLLIYSTSNLASGVPARFSGSGSGTSYSLTISRMEAEDAATYYCQQRSSYPYTFGGGTKLEIK			no binding (tested: about 700 nM (Log[Ab] about 2.8))			8.88				
ZLP22 (antibody, V domains shown, Full-length chimeric antibody; human kappa or lambda light constant domain) VH: EVKLVESGAELARPGASVKMSCKASGYTFTSYAMHWVKQRPGQGLEWIGYINPSSGYTNYNQKFKDKATLTADKSSSTAYMQLSSLTSEDSAVYYCARKGLRYAVDYWGQGTSVTVSS VL: DIVMTQSPSSLSVSAGEKVTMSCKSSQSLLNSGNQKNYLAWYQQKPGQPPKLLIYGASTRESGVPDRFTGSGSGTDYTLTISSVQAEDLALYYCQQHYSTPYTFGGGTKLEIK	~20	5.01	no binding (tested: about 700 nM (Log[Ab] about 2.8))	2.39	no binding (tested: about 700 nM (Log[Ab] about 2.8))		~0.8		~7	IC50 (read off the curve) (human FCGRT [15]): ~30 nM
ZLP193 (antibody, V domains shown, Full-length chimeric antibody: mouse variable domains with human IgG1 or IgG4 heavy constant domain and human kappa or lambda light constant domain; also called chimeric anti-FcRn antibody ZLP193) VH: EVQLQESGPDLVKPSQSLSLTCTVTGYSFTSGYSWHWIRQFPGNRLEWMGYIHDSGGTNYNPSLKSRISITRDTSKNQFFLQLNSVTTEDTATYYCAREENYRYFDVWGAGTTVTVSS VL: DIQMMQSPAIMSASPGEKVTITCSASSSVSYMHWFQQKPGTSPKLWIYSTSNLASGVPARFSGSGSGTSYSLTISRMEAEDAATYYCQQRSSYPPTFGDGTRLEIK	~9	10.1	no binding (tested: about 700 nM (Log[Ab] about 2.8))	0.439	no binding (tested: about 700 nM (Log[Ab] about 2.8))	8.7	~0.3		~1	
